Data as given in patent US20250243277A1 (AVACTA LIFE SCIENCES, published 2025).

B1: Clone 69 (designed binder)
chain: MIPGGLSEAKPATPEIQEIVDKVKPQLEEKTGETYGKLEAVQYKTQVVYKVDNNNYQGTNYYIKVRAGDNKYMHLKVFKSLITWQLNQPREDLVLTGYQVDKNKDDELTGF
notes: His-tagged
B2: Clone 45 (designed binder)
chain: MIPGGLSEAKPATPEIQEIVDKVKPQLEEKTGETYGKLEAVQYKTQVVREYPHFQGYGTNYYIKVRAGDNKYMHLKVFKSLILNAGGIRWEDLVLTGYQVDKNKDDELTGF
notes: His-tagged
B3: Clone 66 (designed binder)
chain: MIPGGLSEAKPATPEIQEIVDKVKPQLEEKTGETYGKLEAVQYKTQVVNLKPDVQGSGTNYYIKVRAGDNKYMHLKVFKSLIVVKRYWYVEDLVLTGYQVDKNKDDELTGF
notes: His-tagged
B4: Clone 39 (designed binder)
chain: MIPGGLSEAKPATPEIQEIVDKVKPQLEEKTGETYGKLEAVQYKTQVVEIRPVWDWSGTNYYIKVRAGDNKYMHLKVFKSLFDHESKPTAEDLVLTGYQVDKNKDDELTGF
notes: His-tagged
B5: Clone 63 (designed binder)
chain: MIPGGLSEAKPATPEIQEIVDKVKPQLEEKTGETYGKLEAVQYKTQVVQEYEDQEWAGTNYYIKVRAGDNKYMHLKVFKSLHLWNQQIYREDLVLTGYQVDKNKDDELTGF
notes: His-tagged
B6: Clone 33 (designed binder)
chain: MIPGGLSEAKPATPEIQEIVDKVKPQLEEKTGETYGKLEAVQYKTQVVNQPQPPWIRGTNYYIKVRAGDNKYMHLKVFKSLNWNSPNLTWEDLVLTGYQVDKNKDDELTGF
notes: His-tagged
B7: Clone 71 (designed binder)
chain: MIPGGLSEAKPATPEIQEIVDKVKPQLEEKTGETYGKLEAVQYKTQVVASFPEISWYGTNYYIKVRAGDNKYMHLKVFKSLKNYPKTGVTEDLVLTGYQVDKNKDDELTGF
notes: His-tagged
B8: Clone 60 (designed binder)
chain: MIPGGLSEAKPATPEIQEIVDKVKPQLEEKTGETYGKLEAVQYKTQVVPQVQEPWWIGTNYYIKVRAGDNKYMHLKVFKSLYKAYIQGWNEDLVLTGYQVDKNKDDELTGF
notes: His-tagged
B9: Clone 27 (designed binder)
chain: MIPGGLSEAKPATPEIQEIVDKVKPQLEEKTGETYGKLEAVQYKTQVVDVKPKWQWTGTNYYIKVRAGDNKYMHLKVFKSLFEGEDRDAVEDLVLTGYQVDKNKDDELTGF
notes: His-tagged
B10: Clone 28 (designed binder)
chain: MIPGGLSEAKPATPEIQEIVDKVKPQLEEKTGETYGKLEAVQYKTQVVAAFSVHPSSGTNYYIKVRAGDNKYMHLKVFKSLEKYHNIWYVEDLVLTGYQVDKNKDDELTGF
notes: His-tagged
B11: Clone 51 (designed binder)
chain: MIPGGLSEAKPATPEIQEIVDKVKPQLEEKTGETYGKLEAVQYKTQVVSHHASPSHIGTNYYIKVRAGDNKYMHLKVFKSLTTDPNWDVHEDLVLTGYQVDKNKDDELTGF
notes: His-tagged
B12: Clone 65 (designed binder)
chain: MIPGGLSEAKPATPEIQEIVDKVKPQLEEKTGETYGKLEAVQYKTQVVDYRAIWHWWGTNYYIKVRAGDNKYMHLKVFKSLFHAEGDIWDEDLVLTGYQVDKNKDDELTGF
notes: His-tagged
B13: Clone 53 (designed binder)
chain: MIPGGLSEAKPATPEIQEIVDKVKPQLEEKTGETYGKLEAVQYKTQVVAWDWLPAYRGTNYYIKVRAGDNKYMHLKVFKSLFKFQNESFAEDLVLTGYQVDKNKDDELTGF
notes: His-tagged
B14: Clone 35 (designed binder)
chain: MIPGGLSEAKPATPEIQEIVDKVKPQLEEKTGETYGKLEAVQYKTQVVKYETHFYYEGTNYYIKVRAGDNKYMHLKVFKSLPKRWAYNAYEDLVLTGYQVDKNKDDELTGF
notes: His-tagged
B15: Clone 64 (designed binder)
chain: MIPGGLSEAKPATPEIQEIVDKVKPQLEEKTGETYGKLEAVQYKTQVVIAHIHWKYFGTNYYIKVRAGDNKYMHLKVFKSLHLAKGQWREEDLVLTGYQVDKNKDDELTGF
notes: His-tagged
B16: Clone 57 (designed binder)
chain: MIPGGLSEAKPATPEIQEIVDKVKPQLEEKTGETYGKLEAVQYKTQVVELDGDHTWLGTNYYIKVRAGDNKYMHLKVFKSLRQLHRIWYFEDLVLTGYQVDKNKDDELTGF
notes: His-tagged
B17: Clone 43 (designed binder)
chain: MIPGGLSEAKPATPEIQEIVDKVKPQLEEKTGETYGKLEAVQYKTQVVVQHPQWHWKGTNYYIKVRAGDNKYMHLKVFKSLVQQRDVWINEDLVLTGYQVDKNKDDELTGF
notes: His-tagged
B18: Clone 6 (designed binder)
chain: MIPGGLSEAKPATPEIQEIVDKVKPQLEEKTGETYGKLEAVQYKTQVVLSEAVYIWAGTNYYIKVRAGDNKYMHLKVFKSLNSRWYGPLGEDLVLTGYQVDKNKDDELTGF
notes: His-tagged
B19: Clone 4 (designed binder)
chain: MIPGGLSEAKPATPEIQEIVDKVKPQLEEKTGETYGKLEAVQYKTQVVFQTWDHAWTGTNYYIKVRAGDNKYMHLKVFKSLFAAETQQYYEDLVLTGYQVDKNKDDELTGF
notes: His-tagged
B20: Clone 5 (designed binder)
chain: MIPGGLSEAKPATPEIQEIVDKVKPQLEEKTGETYGKLEAVQYKTQVVFLDWKQHWRGTNYYIKVRAGDNKYMHLKVFKSLFNDKHNSTEDLVLTGYQVDKNKDDELTGF
notes: His-tagged
B21: Clone 31 (designed binder)
chain: MIPGGLSEAKPATPEIQEIVDKVKPQLEEKTGETYGKLEAVQYKTQVVAQDLSAFQIGTNYYIKVRAGDNKYMHLKVFKSLIFAPLKPWREDLVLTGYQVDKNKDDELTGF
notes: His-tagged
B22: Clone 252 (designed binder)
chain: MIPGGLSEAKPATPEIQEIVDKVKPQLEEKTGETYGKLEAVQYKTQVVAVRPIFKWAGTNYYIKVRAGDNKYMHLKVFKSLFHGPLDNYTEDLVLTGYQVDKNKDDELTGF
notes: His-tagged
B23: Clone 50 (designed binder)
chain: MIPGGLSEAKPATPEIQEIVDKVKPQLEEKTGETYGKLEAVQYKTQVVGRQVKWAWTGTNYYIKVRAGDNKYMHLKVFKSLFKQHHNISEEDLVLTGYQVDKNKDDELTGF
notes: His-tagged
B24: Clone 37 (designed binder)
chain: MIPGGLSEAKPATPEIQEIVDKVKPQLEEKTGETYGKLEAVQYKTQVVHHFAEVKWYGTNYYIKVRAGDNKYMHLKVFKSLKITGSTLTFEDLVLTGYQVDKNKDDELTGF
notes: His-tagged
B25: Clone 59 (designed binder)
chain: MIPGGLSEAKPATPEIQEIVDKVKPQLEEKTGETYGKLEAVQYKTQVVREPALWHFRGTNYYIKVRAGDNKYMHLKVFKSLTFKVDTWKVEDLVLTGYQVDKNKDDELTGF
notes: His-tagged
B26: Clone 61 (designed binder)
chain: MIPGGLSEAKPATPEIQEIVDKVKPQLEEKTGETYGKLEAVQYKTQVVPTGTHQWAAGTNYYIKVRAGDNKYMHLKVFKSLWASLESGQNEDLVLTGYQVDKNKDDELTGF
notes: His-tagged
B27: Clone 70 (designed binder)
chain: MIPGGLSEAKPATPEIQEIVDKVKPQLEEKTGETYGKLEAVQYKTQVVIEEPSAFWWGTNYYIKVRAGDNKYMHLKVFKSLLRVRHSAYREDLVLTGYQVDKNKDDELTGF
notes: His-tagged
B28: Clone 41 (designed binder)
chain: MIPGGLSEAKPATPEIQEIVDKVKPQLEEKTGETYGKLEAVQYKTQVVGTRDEWHWVGTNYYIKVRAGDNKYMHLKVFKSLFVKDDGRVDEDLVLTGYQVDKNKDDELTGF
notes: His-tagged
B29: Clone 42 (designed binder)
chain: MIPGGLSEAKPATPEIQEIVDKVKPQLEEKTGETYGKLEAVQYKTQVVIQHIWWDFVGTNYYIKVRAGDNKYMHLKVFKSLSRLEPAGHQEDLVLTGYQVDKNKDDELTGF
notes: His-tagged
B30: Clone 47 (designed binder)
chain: MIPGGLSEAKPATPEIQEIVDKVKPQLEEKTGETYGKLEAVQYKTQVVGVKQTWNWNGTNYYIKVRAGDNKYMHLKVFKSLFGLNDDEPVEDLVLTGYQVDKNKDDELTGF
notes: His-tagged
B31: Clone 55 (designed binder)
chain: MIPGGLSEAKPATPEIQEIVDKVKPQLEEKTGETYGKLEAVQYKTQVVAGWSLPPHLGTNYYIKVRAGDNKYMHLKVFKSLINHAGQKSDEDLVLTGYQVDKNKDDELTGF
notes: His-tagged
B32: Clone 44 (designed binder)
chain: MIPGGLSEAKPATPEIQEIVDKVKPQLEEKTGETYGKLEAVQYKTQVVRTKETKKSWGTNYYIKVRAGDNKYMHLKVFKSLQKIHAIFYVEDLVLTGYQVDKNKDDELTGF
notes: His-tagged
B33: Clone 7 (designed binder)
chain: MIPGGLSEAKPATPEIQEIVDKVKPQLEEKTGETYGKLEAVQYKTQVVRQYYEWSWVGTNYYIKVRAGDNKYMHLKVFKSLFESPTEDNDEDLVLTGYQVDKNKDDELTGF
notes: His-tagged

molecular target: T1, human PD-L1-Fc (R&D Systems) (human, UniProt Q9NZQ7 19-239); test: soluble Affimer ELISA
T1 construct: Bought from R&D Systems; Biotinylated in-house for the phage selection; also called huPD-L1-Fc; human PD-L1-Fc antigen; not shown: Fc part of the bought fusion
T1 sequence (Q9NZQ7 19-239 limits assumed): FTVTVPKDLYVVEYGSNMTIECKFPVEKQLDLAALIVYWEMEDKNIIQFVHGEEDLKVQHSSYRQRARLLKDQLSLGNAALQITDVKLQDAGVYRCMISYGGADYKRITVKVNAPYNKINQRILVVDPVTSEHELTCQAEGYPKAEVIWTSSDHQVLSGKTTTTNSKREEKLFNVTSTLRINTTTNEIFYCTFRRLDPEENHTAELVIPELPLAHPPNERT

Binding result, binds:
B1, B2, B3, B4, B5, B6, B7, B8, B9, B10, B11, B12, B13, B14, B15, B16, B17, B18, B19, B20, B21, B22, B23, B24, B25, B26, B27, B28, B29, B30, B31, B32, B33
